For data set [1], the target named is SARS-CoV-2 S-protein RBD (expressed in CHO cells) (SARS-CoV-2 (Wuhan-type)) (UniProt P0DTC2). Description: BLI. The conditions noted are these: BLI (BLItz, streptavidin sensors, […]; RBD 50-200 nM): PBS, 0.55 mM MgCl2, 0.1 mg/mL BSA, 0.002% Tween-20, room temperature; binding-buffer pH not stated.
Data set [2] concerns the target SARS-CoV-2 S-protein RBD (expressed in P. pastoris) (SARS-CoV-2 (Wuhan-type)) (UniProt P0DTC2). Put plainly: BLI. The conditions noted are these: BLI (BLItz, streptavidin sensors, immobilized aptamer 200 nM; RBD 50-200 nM): PBS, 0.55 mM MgCl2, 0.1 mg/mL BSA, 0.002% Tween-20, room temperature ….

As usually defined, the Kd is the constant that tells how readily two partners part at equilibrium. Read a low Kd as a tighter complex. Take “TTTTTTTTTTCAGCACCGACCTTGTGCTTTGGGAGTGCTGGTCCAAGGGCGTTAATGGACA [Biotin-CoV2-RBD-1C]”: the Kd is 5.8 nM in data set [1] and 0.8 nM in data set [2]. Regarding “TTTTTTTTTTATCCAGAGTGACGCAGCATCGAGTGGTGGGCTGGTCGGGTTTGGATTCCCTTAGATGCTGGACACGGTGGCTTAGT [Biotin-CoV2-RBD-2]”, in data set [1], the Kd is 17 nM. In the case of “ATCCAGAGTGACGCAGCAGGACTGCTTAGGATTGCGAAGCTGAGGAGCTCCCCCGCCTTGGACACGGTGGCTTAGTTTTTTTTTTT [CoV2-RBD-5-Biotin]”, the values for the Kd in data set [1] and in data set [2] were 26 nM and 1.2 nM, respectively.

In the case of “CAGCACCGACCTTGTGCTTTGGGAGTGCTGGTCCAAGGGCGTTAATGGACATTTTTTTTTT [CoV2-RBD-1C-Biotin]”, the Kd in data set [1] was found to be 27 nM; in data set [2], 1.5 nM. In turn, “TTTTTTTTTTATCCAGAGTGACGCAGCAGGACTGCTTAGGATTGCGAAGCTGAGGAGCTCCCCCGCCTTGGACACGGTGGCTTAGT [Biotin-CoV2-RBD-5]” registered a Kd in data set [1] of 22 nM. With “TTTTTTTTTTATCCAGAGTGACGCAGCAGTAGGGGGATTGGCTCCAGGGCCTGGCTGACGGTTGCACGTGGACACGGTGGCTTAGT [Biotin-CoV2-RBD-6]”, the Kd in data set [1] stood at 29 nM; in data set [2] it was 3.5 nM. As to “TTTTTTTTTTATCCAGAGTGACGCAGCACTGCGTAGGCGCGGCCAATGTGTAGGATTGCTCAGGTCTGCTGGACACGGTGGCTTAGT [Biotin-CoV2-RBD-3]”, the Kd in data set [1] stood at 40 nM; in data set [2], 1.4 nM. On to “TTTTTTTTTTATCCAGAGTGACGCAGCATTTCATCGGGTCCAAAAGGGGCTGCTCGGGATTGCGGATATGGACACGT [Biotin-CoV2-RBD-4]”, for which the Kd is 18 nM in data set [1] and 14 nM in data set [2].

As for “ATCCAGAGTGACGCAGCATCGAGTGGTGGGCTGGTCGGGTTTGGATTCCCTTAGATGCTGGACACGGTGGCTTAGTTTTTTTTTTT [CoV2-RBD-2-Biotin]”, the Kd was determined as 4.3 nM in data set [1] and 10 nM in data set [2]. For “ATCCAGAGTGACGCAGCATTTCATCGGGTCCAAAAGGGGCTGCTCGGGATTGCGGATATGGACACGTTTTTTTTTTT [CoV2-RBD-4-Biotin]”, the Kd stood at 21 nM in data set [1] and 5.5 nM in data set [2]. Turning to “ATCCAGAGTGACGCAGCAGTAGGGGGATTGGCTCCAGGGCCTGGCTGACGGTTGCACGTGGACACGGTGGCTTAGTTTTTTTTTTT [CoV2-RBD-6-Biotin]”, the Kd in data set [1] was determined as 10 nM; in data set [2], 1 nM. In the case of “ATCCAGAGTGACGCAGCACTGCGTAGGCGCGGCCAATGTGTAGGATTGCTCAGGTCTGCTGGACACGGTGGCTTAGTTTTTTTTTTT [CoV2-RBD-3-Biotin]”, the Kd in data set [1] came out at 24 nM; in data set [2], 2 nM.

Source of the values: PMC8745424.
